{"source": "IntAct's records for PubMed 21763312", "parents": {"B1": {"name": "Protein virB8 (Agrobacterium tumefaciens (strain C58 / ATCC 33970)), P17798 (parent)", "chain": "MKGSEYALLVARETLAEHYKEVEAFQTARAKSARRLSKVIAAVATIAVLGNVAQAFTIATMVPLIRLVPVYLWIRPDGTVDSEVSVSRLPATQEEAVVNASLWEYVRLRESYDADTAQYAYDLVSNFSAPMVRQNYQQFFNYPNPTSPQVILGKHGRLEVEHIASNDVTPGVQQIRYKRTLIVDGKMPMASTWTATVRYEKVTSLPGRLRLTNPGGLVVTSYQTSEDTVSNAGHSEP", "partner": "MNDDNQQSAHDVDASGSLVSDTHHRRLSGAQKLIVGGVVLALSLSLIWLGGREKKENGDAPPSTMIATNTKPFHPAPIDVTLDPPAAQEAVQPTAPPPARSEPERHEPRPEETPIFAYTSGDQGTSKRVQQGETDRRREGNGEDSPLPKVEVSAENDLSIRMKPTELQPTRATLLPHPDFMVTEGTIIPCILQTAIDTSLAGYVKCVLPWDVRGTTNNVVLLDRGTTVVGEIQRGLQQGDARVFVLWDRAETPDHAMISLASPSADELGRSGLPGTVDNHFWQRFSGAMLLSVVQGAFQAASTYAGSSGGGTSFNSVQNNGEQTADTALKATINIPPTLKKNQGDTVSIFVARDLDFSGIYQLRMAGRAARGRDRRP"}}}
{"variants_of": "B1", "settings": "with virba_agrfc virB10, P17800"}
{"variant": "A55W", "effect of a mutation on the interaction": "increasing interaction"}
